# Test results: patent publication US20240400638A1, “COMBINATION OF RELAXIN AND VASOPRESSIN ANALOGUES FOR TREATMENT OF RENAL DISORDERS OR CONDITIONS” (River 2 Renal Corp., priority 2021, published 2024)
# Numbered stars: 1 amine (or outer) side, 2 acyl side, 3 side chain; on linkers, the order of the positions; unused ones are H or OH. Square brackets hold non-standard residues; d marks the D form. Side chains are listed from the residue outwards. * marks the point of attachment. TTDS = 4-[3-[2-[2-(3-aminopropoxy)ethoxy]ethoxy]propylamino]-4-oxo-butanoyl; γGlu = O=C(O)[C@H](CCC(=O)[*:2])N[*:1]; Stearoyl = CCCCCCCCCCCCCCCCCC(=O)*; Palmitoyl = CCCCCCCCCCCCCCCC(=O)*; Cit = NC(=O)NCCC[C@H](N)C(=O)O; αMeK = C[C@](N)(CCCCN)C(=O)O; hLys = NCCCCC[C@H](N)C(=O)O; AEEA = NCCOCCOCC(=O)O; Aib = CC(C)(N)C(=O)O
# T1: human RXFP1 (human, UniProt Q9HBX9 1-757)
# T1 sequence (looked up): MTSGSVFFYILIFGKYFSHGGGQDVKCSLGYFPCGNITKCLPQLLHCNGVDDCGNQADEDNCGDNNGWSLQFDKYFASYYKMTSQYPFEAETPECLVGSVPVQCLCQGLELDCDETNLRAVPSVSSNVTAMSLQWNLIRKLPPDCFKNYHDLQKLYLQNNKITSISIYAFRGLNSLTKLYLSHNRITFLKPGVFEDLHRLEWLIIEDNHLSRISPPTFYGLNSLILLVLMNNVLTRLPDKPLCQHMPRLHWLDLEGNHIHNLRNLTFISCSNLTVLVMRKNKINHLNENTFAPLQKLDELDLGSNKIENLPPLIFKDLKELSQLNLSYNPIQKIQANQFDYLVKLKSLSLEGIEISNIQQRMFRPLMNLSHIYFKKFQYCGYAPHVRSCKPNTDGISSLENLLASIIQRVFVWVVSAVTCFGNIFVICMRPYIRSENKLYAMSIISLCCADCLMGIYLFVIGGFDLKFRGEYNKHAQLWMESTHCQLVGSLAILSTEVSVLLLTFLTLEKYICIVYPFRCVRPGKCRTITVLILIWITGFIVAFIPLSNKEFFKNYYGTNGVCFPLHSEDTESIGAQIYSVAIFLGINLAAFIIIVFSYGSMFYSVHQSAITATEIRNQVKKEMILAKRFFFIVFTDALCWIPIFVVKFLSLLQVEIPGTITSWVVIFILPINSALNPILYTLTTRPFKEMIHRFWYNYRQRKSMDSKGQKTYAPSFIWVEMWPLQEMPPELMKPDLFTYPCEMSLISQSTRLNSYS
# B1: Relaxin peptide analogue of SEQ ID NO: 45 (peptide)
# peptide: Ac-LEGREKVRAK(Ac)I[Aib][Aib]EGK([AEEA-AEEA-AEEA-AEEA-AEEA-γGlu-γGlu-γGlu-Palmitoyl])STFS[αMeK]RAK(Ac)-NH2
# SMILES: CCCCCCCCCCCCCCCC(=O)N[C@@H](CCC(=O)N[C@@H](CCC(=O)N[C@@H](CCC(=O)NCCOCCOCC(=O)NCCOCCOCC(=O)NCCOCCOCC(=O)NCCOCCOCC(=O)NCCOCCOCC(=O)NCCCC[C@H](NC(=O)CNC(=O)[C@H](CCC(=O)O)NC(=O)C(C)(C)NC(=O)C(C)(C)NC(=O)[C@@H](NC(=O)[C@H](CCCCNC(C)=O)NC(=O)[C@H](C)NC(=O)[C@H](CCCNC(=N)N)NC(=O)[C@@H](NC(=O)[C@H](CCCCN)NC(=O)[C@H](CCC(=O)O)NC(=O)[C@H](CCCNC(=N)N)NC(=O)CNC(=O)[C@H](CCC(=O)O)NC(=O)[C@H](CC(C)C)NC(C)=O)C(C)C)[C@@H](C)CC)C(=O)N[C@@H](CO)C(=O)N[C@H](C(=O)N[C@@H](Cc1ccccc1)C(=O)N[C@@H](CO)C(=O)N[C@@](C)(CCCCN)C(=O)N[C@@H](CCCNC(=N)N)C(=O)N[C@@H](C)C(=O)N[C@@H](CCCCNC(C)=O)C(N)=O)[C@@H](C)O)C(=O)O)C(=O)O)C(=O)O
# B2: Relaxin peptide analogue of SEQ ID NO: 42 (peptide)
# peptide: Ac-LEGREKVRAK(Ac)I[Aib][Aib]EGK([AEEA-AEEA-AEEA-AEEA-γGlu-γGlu-γGlu-Palmitoyl])STWS[αMeK]RAK(Ac)-NH2
# SMILES: CCCCCCCCCCCCCCCC(=O)N[C@@H](CCC(=O)N[C@@H](CCC(=O)N[C@@H](CCC(=O)NCCOCCOCC(=O)NCCOCCOCC(=O)NCCOCCOCC(=O)NCCOCCOCC(=O)NCCCC[C@H](NC(=O)CNC(=O)[C@H](CCC(=O)O)NC(=O)C(C)(C)NC(=O)C(C)(C)NC(=O)[C@@H](NC(=O)[C@H](CCCCNC(C)=O)NC(=O)[C@H](C)NC(=O)[C@H](CCCNC(=N)N)NC(=O)[C@@H](NC(=O)[C@H](CCCCN)NC(=O)[C@H](CCC(=O)O)NC(=O)[C@H](CCCNC(=N)N)NC(=O)CNC(=O)[C@H](CCC(=O)O)NC(=O)[C@H](CC(C)C)NC(C)=O)C(C)C)[C@@H](C)CC)C(=O)N[C@@H](CO)C(=O)N[C@H](C(=O)N[C@@H](Cc1c[nH]c2ccccc12)C(=O)N[C@@H](CO)C(=O)N[C@@](C)(CCCCN)C(=O)N[C@@H](CCCNC(=N)N)C(=O)N[C@@H](C)C(=O)N[C@@H](CCCCNC(C)=O)C(N)=O)[C@@H](C)O)C(=O)O)C(=O)O)C(=O)O
# Biological target: T1, human RXFP1
# Test: cell-based or functional assay
"EC50 (nM), OVCAR 5 cells (cAMP) [nM]","EMax, OVCAR 5 cells (cAMP) [%]",Binder
0.64,95,Ac-LEGREKVRAKI[Aib][Aib]EGK([TTDS-TTDS-TTDS-γGlu-γGlu-γGlu-Palmitoyl])STFS[αMeK]RAK(Ac)-NH2 [Relaxin peptide analogue of SEQ ID NO: 47]
2.2,97,Ac-LEGREKVRAK(Ac)I[Aib][Aib]EGK([TTDS-TTDS-TTDS-γGlu-γGlu-γGlu-Palmitoyl])STW[dS]KRAK(Ac)-NH2 [Relaxin peptide analogue of SEQ ID NO: 44]
0.45,96,B1
0.15,91,Ac-LEGREKVRA[Cit]I[Aib][Aib]EGK([TTDS-TTDS-TTDS-γGlu-γGlu-γGlu-Stearoyl])STFS[αMeK]RAK(Ac)-NH2 [Relaxin peptide analogue of SEQ ID NO: 56]
0.45,96,Ac-LEGREKVRAQI[Aib][Aib]EGK([TTDS-TTDS-TTDS-γGlu-γGlu-γGlu-Palmitoyl])STFS[αMeK]RAK(Ac)-NH2 [Relaxin peptide analogue of SEQ ID NO: 48]
0.44,98,Ac-LEGREKVRAK(Ac)I[Aib][Aib]EGK([TTDS-TTDS-TTDS-γGlu-γGlu-γGlu-Palmitoyl])STWS[hLys]RAK(Ac)-NH2 [Relaxin peptide analogue of SEQ ID NO: 57]
1.5,84,B2
0.19,97,Ac-LEGREKVRAK(Ac)I[Aib][Aib]EGK([TTDS-TTDS-TTDS-γGlu-γGlu-γGlu-Palmitoyl])STFS[αMeK]RAK-NH2 [Relaxin peptide analogue of SEQ ID NO: 49]
0.08,98,Ac-LEGREKVRAK(Ac)I[Aib][Aib]EGK([TTDS-TTDS-TTDS-TTDS-γGlu-γGlu-γGlu-Stearoyl])STWS[Aib]RKK(Ac)-NH2 [Relaxin peptide analogue of SEQ ID NO: 58]
0.16,96,Ac-LEGREKVRAK(Ac)I[Aib][Aib]EGK([TTDS-TTDS-γGlu-γGlu-γGlu-γGlu-Stearoyl])STWS[Aib]RKK(Ac)-NH2 [Relaxin peptide analogue of SEQ ID NO: 54]
0.1,98,Ac-LEGREKVRAK(Ac)I[Aib][Aib]EGK([TTDS-TTDS-TTDS-γGlu-γGlu-γGlu-γGlu-Stearoyl])STWS[Aib]RKK(Ac)-NH2 [Relaxin peptide analogue of SEQ ID NO: 51]

# Biological target: T1, human RXFP1
# Test: cell-based or functional assay
# Remark: another data set of the same source
"EC50 (nM), cAMP assay in OVCAR 5 cells [nM]","Emax, cAMP assay in OVCAR 5 cells [%]",Binder
1640,90,H-VIKLSGRELVRAQIAISGMSTWSKRSL-NH2 [B7-33 C11.23S]
929,70,Ac-VIKLSGRELVRAQIAISGMSTWSKRSL-NH2 [AcB7-33 C11.23S]
206,84,Ac-VIKLSGRELVRAQIAISGMSTWSKKKK-NH2 [KKKK(AcB7-29 C11.23S)]
